# Measured values reported in the DeepSol protein solubility set.
# Assay: soluble on expression in E. coli; label from the status in PepcDB or PDB records
row,Sequence,soluble on expression in E. coli
1,KDFLNPKYTLENFIVGEGNRLAYEVVKEALENLGSLYNPIFIYGSVGTGKTHLLQAAGNEAKKRGYRVIYSSADDFAQAMVEHLKKGTINEFRNMYKSVDLLLLDDVQFLSGKERTQIEFFHIFNTLYLLEKQIILASDRHPQKLDGVSDRLVSRFEGGILVEIELDNKTRFKIIKEKLKEFNLELRKEVIDYLLENTKNVREIEGKIKLIKLKGFEGLERKERKERDKLMQIVEFVANYYAVKVEDILSDKRNKRTSEARKIAMYLCRKVCSASLIEIARAFKRKDHTTVIHAIRSVEEEKKKDRKFKHLVGFLEKQAFDKIC,soluble
2,KDGDFLDMDWHGPNDADAPLVLVLHGLTGSSNSPYVAGLQKAMAAKGWASVALNWRGCSGEPNLLSRSYHSGASEDLAEVIAHLRLLRPLAALYAVGYSLGGNVLLKYLGESGKHSELLGAVAVSVPFRLDECANRIGQGFSKVYQRHFMREMLTYIRDKQQRFQHEGLTEGLAELSALGSLENMRTFWDFDGRVTAPLHGFVDATDYYRRASSRYYLGQIETPTLIIQSRDDPFVFPHSLPEPGELSACTEFELHAKGGHVGFVDGSLRNPTYYLERRIPSWL,not soluble
3,KEKVKEPVKHLNSKNFDEFITKNKIVVVDFWAEWCAPCLILAPVIEELANDYPQVAFGKLNTEESQDIAMRYGIMSLPTIMFFKNGELVDQILGAVPREEIEVRLKSLLE,soluble
4,KERIIGDLSQPVAVRVRTLIQQMTLAEKVAQLVSESDSIPRLNLPAYNYWNECLHGVARAGEVTVFPQAINLASTWDTVLVKRVASAISTEARLKYLEIGKGLTYWSPTINMARDPRWGRNEETYGEDPHLTSRLGVAFVKGLQGDHPTYLKTVATIKHFVANNEENNRFSSSSQIPTKQLYEYYFPAYEACVKEANAQSVMTAYNAFNGVPPSGSHWLLDDVLRKEWGFDGFVVSDCGAIGVMNWQHRVVNSLEEAAALGVNSGCDLECGTTYKEKLVQAVEQGLISEAAIDRALTRVLTARFKLGEFDPMELVPYNHYDKKLLA,not soluble
5,KILAVTACPTGIAHTFMAADALKEKAKELGVEIKVETNGSSGIKHKLTAQEIEDAPAIIVAADKQVEMERFKGKRVLQVPVTAGIRRPQELIEKAMNQDAPIY,soluble
6,KISKISTGIPRVDELLYGGFDGRDNIVVSGNNFSQKRSFIYNFIKSSANSGMKVIIINVDGSSESLLADLARRGTDLENIILLDGFSKNFQEKVPPNAEVIDDPSNVSSVLKQYMLRAQKEKDFIFVFLSATPYLMDFNDQNRKFFVQLVHWNRKNSLLSTYVLDDFVGQTTAEWFAYMMDFSLYFKNDGDYDYMRVLSLKPVRTKDW,soluble
7,KIWLFFIEQANNEIRIDLRSNGINVRDIAIKYGGGGHNNASGAIITNKKQISDVVSD,soluble
8,KKEEASSKSYRELIIEGLTALKERKGSSRPALKKFIKENYPIVGSASNFDLYFNNAIKKGVEAGDFEQPKGPAGAVKLAKKKSPEVKKEKEVS,soluble
9,KKHILVYNEEADEALRQIKADRIELHQSFKASFERLNEIQQLAYTNAMTRDAALIQEPDFDPEQLESDYYRNLYRINTRRDNLNTHRALEN,not soluble
10,KKSSMRKELETIQLLWHQQKGQYQLSKETIELINHKCHDLKHQVQAIRAVKDEKERETYLEKIEKSVQIYSAIVRTGNEILDTILTEKSLICENSGIHINCVADGSLLAFMNPVDLYTLFGNALDNAIEAVRKLESKEKRVIDIMLYERQSFLMLQIVNPMCGEVKFEDGLPLTTKAKNGYHGYGMKSMLHTIQKYEGHLTTEVKNGCFYFNVMLPLERDSNKK,not soluble
11,KLRQWLIDQIDSGKYPGLVWENEEKSIFRIPWKHAGKQDYNREEDAALFKAWALFKGKFREGIDKPDPPTWKTRLRCALNKSNDFEELVERSQLDISDPYKVYRIVPE,soluble
12,KNFDGDLNDYRQWRLAQENAAVAPAASAQSQSRKDTKRIEAQIRQEKARRGKPIQQKIDRAEKEMAQLSEIQTACEAFLAQEEAYFEENKEKLQDTLSELAKVKTQLAQIEEVWLACQEELEQIETEIEKQFAER,not soluble
13,KNVNRVLSAEALKPGMLLTGTVSSLEDHGYLVDIGVDGTRAFLPLLKAQEYIRQKNKGAKLKVGQYLNCIVEKVKGNGGVVSLSVGHSEVSTAIATEQQSWNLNNL,soluble
14,KNVWIFAEQREGKIAPVVIELLGEGRKLAKEVDAELCAILLGKDVDGLAKELITFGADKVYVADDALLEKYTTDAYTKVIKDAIDEIKPEIMLFGATHIGRDLAPRIASRVGTGLTADCTKLEIDPEDKKIKQTRPAFGGNIMATIICPNHRPQMSTVRPGVMDKAEKDETRTGEVIALDYKITQDDIRTTVLETV,not soluble
15,KRETDNGHDVFESFEQMEKTAFVIPSAYGYDIKGYHVAPHDTPNTIIICHGVTMNVLNSLKYMHLFLDLGWNVLIYDHRRHGQSGGKTTSYGFYEKDDLNKVVSLLKNKTNHRGLIGIHGESMGAVTALLYAGAHCSDGADFYIADCPFACFDEQLAYRLRAEYRLPSWPLLPIADFFLKLRGGYRAREVSPLAVIDKIEKPVLFIHSKDDDYIPVSSTERLYEKKRGPKALYIAENGEHAMSYTKNRHTYRKTVQEFLDNMNDSTE,not soluble
16,KRKTKEQLAILKSFFLQCQWARREDYQKLEQITGLPRPEIIQWFGDTRYALKHGQLKWFRDNA,soluble
17,KTKVGNQSPDVRFGLQNTFKIKDFTVNIDMDGAIGGTLISTTTQKMWWGGKHPKSTMYRQEEYDNGGKPVYVPEGVNIVSGEVTYDVNGNIVSDTRVYKKNETAVNIQTWAQNYPYRAVVRTEESELFANTFSRSFLKLRRVAVTYDLTKFIQSQFIKGLDVTVFGNNLAVLKKTPYLDPDFGASDGDLQDPSARYVGVSANIKF,not soluble
18,KTQGFLTMSRRRISCKDLGHADCQGWLYKKKEKGSFLSNKWKKFWVILKGSSLYWYSNQMAEKADGFVNLPDFTVERASECKKKHAFKISHPQIKTFYFAAENVQEMNVWLNKLGSAVIHQESTTKDEECYSESEQEDPEIAAETPPPPHASQTQSLTAQQASSSSPSLSGTSYSFSSLENTVKTPSSFPSSLSKERQSLPDTVNSLSAAEDEGQPITFAVQVHSPVPSEAGIHKALENSFVTSESGFLNSLSSDDTSSLSSNHDHLTVPDKPAGSKIMDKEETKVSEDDEMEKLYKSLEQASLSPLGDRRPSTKKELRKSFVKRCKNPSINEKLHKIRTLNSTLKCKEHDLAMINQLLDDPKLTARKYREWKVMNTLLIQDIYQQQRASPAPDDTDDTPQELKKSPSSPSVENSI,soluble
19,KVILYARVSSSTQKDELVNQVKYLEEQVKEYDLVITDIGSGLNMKRKGFLKLLRMILNNEVSRVVVAYPDRLVRVGFEILEEVCKAHNCEIVVLNQEDKEEELVEDLMSALVSFSGKLYGMRSHEYEKVKKCAEELKNWKI,soluble
20,KVKVPYLRLSLPELHIDMDFLKKTVDFSSISALQQTVLYIGRLLVQSGINTLGVDAVAAFNAVSIIDSYVLAPGDSLAASITTFTAQNKGGKQYHRIPKG,not soluble
21,KVKWTHEEDEQLRALVRQFGQQDWKFLASHFPNRTDQQCQYRWLRVL,soluble
22,KYKLVFLGEQAVGKTSIITRFMYDTFDNNYQSTIGIDFLSKTLYLDEGPVRLQLWDTAGQERFRSLIPSYIRDSAAAIVVYDITNRQSFENTTKWIQDILNERGKDVIIALVGNKTDLGDLRKVTYEEGMQKAQEYNTMFHETSAKAGHNIKVLFKKTASKL,soluble
23,LAKGLEDVYIDQTNICYIDGKEGKLYYRGYSVEELAELSTFEEVVYLLWWGKLPSLSELENFKKELAKSRGLPKEVIEIMEALPKNTHPMGALRTIISYLGNIDDSGDIPVTPEEVYRIGISVTAKIPTIVANWYRIKNGLEYVPPKEKLSHAANFLYMLHGEEPPKEWEKAMDVALILYAEHEINASTLAVMTVGSTLSDYYSAILAGIGALKGPIHGGAVEEAIKQFMEIGSPEKVEEWFFKALQQKRKIMGAGHRVYKTYDPRARIFKKYASKLGDKKLFEIAERLERLVEEYLSKKGISINVDYWSGLVFYGMKIPIELYTTIFAMGRIAGWTAHLAEYVSHNRIIRPRLQYVGEIGKKYLPIELRR,soluble
